Patent US7429481
Where two headings read alike, the source gives them in different places.

Columns and labels:
[1] = molecular target: human Her2/neu receptor (human) (UniProt P04626); assay: flow cytometry, SKBR3 cells stained with Herceptin
[2] = molecular target: human Her2/neu receptor (human) (UniProt P04626)

Substance “Herceptin, the humanized form of 4D5 (antibody)” has a mean fluorescence [1] of 401 and a mean fluorescence [2] of 186.
